# Laboratory results as given in publication PMC12040988, “GET3B is involved in chloroplast biogenesis and interacts with the thylakoidal ALB3 and ALB4 insertases” (Plant Cell Reports, 2025).
# T1: GST-tagged mature full-length GET3b (GST-Get3b) (Arabidopsis thaliana, UniProt A1L4Y1 68-411)
# T1 construct: The results say 'GET3B C-terminally fused to GST'; The name GST-Get3b and the vector pGex-4T-3 fit GST at the N-terminus; also called AtGET3B; source: E. coli Rosetta2(DE3), purified (glutathione-sepharose); not shown: GST, N-terminal, kept
# T1 sequence (looked up): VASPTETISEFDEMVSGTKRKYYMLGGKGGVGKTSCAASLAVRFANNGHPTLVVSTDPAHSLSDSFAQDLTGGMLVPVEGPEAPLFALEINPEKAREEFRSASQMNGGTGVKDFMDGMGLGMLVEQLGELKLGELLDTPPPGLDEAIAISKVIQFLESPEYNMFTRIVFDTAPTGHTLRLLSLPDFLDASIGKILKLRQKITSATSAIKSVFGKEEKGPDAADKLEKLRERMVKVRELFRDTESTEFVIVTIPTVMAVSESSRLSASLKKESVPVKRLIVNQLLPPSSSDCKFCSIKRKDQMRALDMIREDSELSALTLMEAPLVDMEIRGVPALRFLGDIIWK
# B1: His-tagged C-terminal region of ALB3 (Alb3C-His) (domain or fragment, Arabidopsis thaliana, UniProt Q8LBP4 350-462, looked up)
# chain: VYLRKLGGAKPNMDENASKIISAGRAKRSIAQPDDAGERFRQLKEQEKRSKKNKAVAKDTVELVEESQSESEEGSDDEEEEAREGALASSTTSKPLPEVGQRRSKRSKRKRTV
# notes: ALB3 of Arabidopsis thaliana, stromal C-terminal region, aa 350-462; also called Alb3-His; source: E. coli Rosetta2(DE3), purified (nickel-nitrilotriacetic acid); not shown: His tag, C-terminal, kept
# B2: His-tagged C-terminal region of ALB4 (Alb4C-His) (domain or fragment, Arabidopsis thaliana, UniProt Q9FYL3 334-499, looked up)
# chain: VWLQKYGGAKNPVEKFTNLVTKEDKTQQIEKSFSEPLVQKSVSELKIPREKGGEKVTPECPKPGERFRLLKEQEAKRRREKEERQKAEAALSNQNTDKAHEQDEKSDTAIVAEDDKKTELSAVDETSDGTVAVNGKPSIQKDETTNGTFGIGHDTEQQHSHETEKR
# notes: ALB4 (STIC1) of Arabidopsis thaliana, stromal C-terminal region, aa 334-499; source: E. coli Rosetta2(DE3), purified (nickel-nitrilotriacetic acid); not shown: His tag, C-terminal, kept
# Molecular target: T1, GST-tagged mature full-length GET3b …
# Assay: pull-down; 50 μg GST-Get3b (or GST) with 20 μg Alb3C-His or Alb4C-His in 120 μl 1x PBS, 10 min at room temperature; held on glutathione resin 30 min, washed with 5 ml PBS, eluted with 10 mM reduced glutathione; immunoblot with antibodies against Alb3, Alb4 or GST
# Conditions: both partners purified
row,Binder,binding result
1,B1,binds
2,B2,binds
